Data published in article PMC12208556, “Thrombospondin-1 inhibits alternative complement pathway activation in antineutrophil cytoplasmic antibody-associated vasculitis” (The Journal of Clinical Investigation, 2025).

B1: recombinant full-length thrombospondin-1 (natural protein)
chain: not shown
notes: Thrombospondin-1, human cDNA from Sinobiological (HG10508-UT), subcloned into pFastbac1 behind a gp67 signal peptide for secretion; The gp67 signal peptide stands in place of or before the native one; also called TSP-1; source: Spodoptera frugiperda 9 cells (baculovirus), purified from cell supernatants via Ni-NTA columns; not shown: 10xHis, N-terminal, kept
B2: recombinant full-length thrombospondin-1 (TSP-1) (natural protein)
chain: not shown
notes: Thrombospondin-1, human cDNA (Sinobiological HG10508-UT) subcloned into pFastbac1 with a gp67 signal peptide for secretion and an N-terminal 10xHis tag; called recombinant full-length TSP-1; Secreted through a gp67 signal peptide; also called recombinant TSP-1; source: Spodoptera frugiperda 9 cells (baculovirus), purified from cell supernatants via Ni-NTA columns; not shown: 10xHis, N-terminal, …

Experiments:
Conditions in all cases: both partners purified
complement C8 [1] = target: T1, complement C8 (UniProt P07357 31-584; P07358 55-591; P07360 21-202); test: SPR; BIAcore 3000; TSP-1 bound covalently to CM5 chips at 0.1 uM; complement proteins as analytes at 12.3, 37.03, 111.1, 333.3, 1,000 nM in PBS plus 0.05% Tween 20; 1:1 Langmuir binding model; average of 3 repeated measurements
T1 construct: source: bought: Complement Technologies; copies: + +
T1 sequence (P07357 31-584, chain 1 of 3): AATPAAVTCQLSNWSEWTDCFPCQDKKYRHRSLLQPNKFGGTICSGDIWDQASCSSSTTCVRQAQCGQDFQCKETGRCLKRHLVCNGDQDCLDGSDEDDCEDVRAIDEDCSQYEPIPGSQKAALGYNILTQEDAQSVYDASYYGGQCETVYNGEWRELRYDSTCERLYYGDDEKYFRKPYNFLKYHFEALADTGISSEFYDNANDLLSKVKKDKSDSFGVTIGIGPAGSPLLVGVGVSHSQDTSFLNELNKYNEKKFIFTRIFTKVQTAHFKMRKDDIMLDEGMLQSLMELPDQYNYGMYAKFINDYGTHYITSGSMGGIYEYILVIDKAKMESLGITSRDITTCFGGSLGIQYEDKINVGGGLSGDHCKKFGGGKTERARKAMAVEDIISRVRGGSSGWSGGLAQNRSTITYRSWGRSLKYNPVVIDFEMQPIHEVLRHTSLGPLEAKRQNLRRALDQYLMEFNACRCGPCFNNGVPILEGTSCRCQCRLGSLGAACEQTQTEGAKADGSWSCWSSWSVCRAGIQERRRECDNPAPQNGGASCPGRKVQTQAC
T1 sequence (P07358 55-591, chain 2 of 3): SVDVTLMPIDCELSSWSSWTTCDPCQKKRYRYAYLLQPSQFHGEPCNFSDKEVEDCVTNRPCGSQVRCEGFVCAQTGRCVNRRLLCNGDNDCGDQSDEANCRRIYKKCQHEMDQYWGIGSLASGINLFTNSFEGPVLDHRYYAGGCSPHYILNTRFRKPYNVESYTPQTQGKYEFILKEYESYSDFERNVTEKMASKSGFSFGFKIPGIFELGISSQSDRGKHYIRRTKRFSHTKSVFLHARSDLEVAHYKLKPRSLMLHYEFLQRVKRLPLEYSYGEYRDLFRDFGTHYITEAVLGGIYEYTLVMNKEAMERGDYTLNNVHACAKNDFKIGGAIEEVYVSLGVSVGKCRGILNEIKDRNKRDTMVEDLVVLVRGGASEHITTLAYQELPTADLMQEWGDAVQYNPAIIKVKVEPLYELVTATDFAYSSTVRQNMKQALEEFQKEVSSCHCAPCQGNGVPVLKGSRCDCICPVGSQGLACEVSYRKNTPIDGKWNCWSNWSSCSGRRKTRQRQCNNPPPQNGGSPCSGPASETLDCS
T1 sequence (P07360 21-202, chain 3 of 3): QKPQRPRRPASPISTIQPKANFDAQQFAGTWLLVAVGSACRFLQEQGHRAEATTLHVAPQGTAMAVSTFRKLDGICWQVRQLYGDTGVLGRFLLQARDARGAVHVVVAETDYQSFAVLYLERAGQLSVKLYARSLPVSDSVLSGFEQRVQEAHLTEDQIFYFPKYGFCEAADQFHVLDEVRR

complement factor H = target: T2, complement factor H (UniProt P08603 19-1231); test: as above
T2 construct: Complement factor H; also called FH; source: bought: Complement Technologies

complement factor H (FH) = target: T3, complement factor H (FH) (UniProt P08603 19-1231); test: SPR; BIAcore 3000; TSP-1 bound covalently to CM5 chips at 0.1 μM; complement proteins flowed at 12.3, 37.03, 111.1, 333.3, 1,000 nM in PBS plus 0.05% Tween 20; 1:1 Langmuir binding model; average of 3 measurements
T3 construct: Complement factor H, obtained from Complement Technologies; source: bought: Complement Technologies

complement C3 = target: T4, complement C3 (UniProt P01024 23-667; P01024 672-1663); test: as above
T4 construct: Complement C3 beta chain (75 kDa), cut from the C3 precursor; Complement C3 alpha chain (110 kDa), cut from the C3 precursor; source: bought: Complement Technologies

complement C5 = target: T5, complement C5 (UniProt P01031 19-673; P01031 678-1676); test: as above
T5 construct: Complement C5 beta chain; Complement C5 alpha chain; source: bought: Complement Technologies

complement C8 [2] = target: T6, complement C8 (UniProt P07357 31-584; P07358 55-591; P07360 21-202); test: as above
T6 construct: Complement component C8 alpha chain; Complement component C8 beta chain; Complement component C8 gamma chain; source: bought: Complement Technologies; copies: + +
T6 sequence (P07357 31-584, chain 1 of 3): as the sequence (P07357 31-584, chain 1 of 3) above
T6 sequence (P07358 55-591, chain 2 of 3): as the sequence (P07358 55-591, chain 2 of 3) above
T6 sequence (P07360 21-202, chain 3 of 3): as the sequence (P07360 21-202, chain 3 of 3) above

T4 sequence (P01024 23-667, chain 1 of 2): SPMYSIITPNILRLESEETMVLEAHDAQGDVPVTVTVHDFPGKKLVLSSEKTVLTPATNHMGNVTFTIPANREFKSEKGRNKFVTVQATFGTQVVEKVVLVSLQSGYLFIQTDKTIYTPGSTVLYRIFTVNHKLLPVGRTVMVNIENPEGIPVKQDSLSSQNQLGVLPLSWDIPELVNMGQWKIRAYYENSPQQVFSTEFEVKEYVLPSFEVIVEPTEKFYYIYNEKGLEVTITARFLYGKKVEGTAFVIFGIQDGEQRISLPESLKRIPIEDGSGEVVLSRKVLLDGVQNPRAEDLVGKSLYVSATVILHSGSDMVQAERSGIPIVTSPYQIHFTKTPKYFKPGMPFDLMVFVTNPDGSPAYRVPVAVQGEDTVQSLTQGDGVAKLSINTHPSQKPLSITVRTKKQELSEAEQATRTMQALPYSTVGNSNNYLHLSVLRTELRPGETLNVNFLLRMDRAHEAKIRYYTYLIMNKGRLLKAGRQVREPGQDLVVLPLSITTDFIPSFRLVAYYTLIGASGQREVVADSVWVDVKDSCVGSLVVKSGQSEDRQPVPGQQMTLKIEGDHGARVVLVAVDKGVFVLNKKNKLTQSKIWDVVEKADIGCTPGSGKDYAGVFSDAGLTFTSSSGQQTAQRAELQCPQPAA
T4 sequence (P01024 672-1663, chain 2 of 2): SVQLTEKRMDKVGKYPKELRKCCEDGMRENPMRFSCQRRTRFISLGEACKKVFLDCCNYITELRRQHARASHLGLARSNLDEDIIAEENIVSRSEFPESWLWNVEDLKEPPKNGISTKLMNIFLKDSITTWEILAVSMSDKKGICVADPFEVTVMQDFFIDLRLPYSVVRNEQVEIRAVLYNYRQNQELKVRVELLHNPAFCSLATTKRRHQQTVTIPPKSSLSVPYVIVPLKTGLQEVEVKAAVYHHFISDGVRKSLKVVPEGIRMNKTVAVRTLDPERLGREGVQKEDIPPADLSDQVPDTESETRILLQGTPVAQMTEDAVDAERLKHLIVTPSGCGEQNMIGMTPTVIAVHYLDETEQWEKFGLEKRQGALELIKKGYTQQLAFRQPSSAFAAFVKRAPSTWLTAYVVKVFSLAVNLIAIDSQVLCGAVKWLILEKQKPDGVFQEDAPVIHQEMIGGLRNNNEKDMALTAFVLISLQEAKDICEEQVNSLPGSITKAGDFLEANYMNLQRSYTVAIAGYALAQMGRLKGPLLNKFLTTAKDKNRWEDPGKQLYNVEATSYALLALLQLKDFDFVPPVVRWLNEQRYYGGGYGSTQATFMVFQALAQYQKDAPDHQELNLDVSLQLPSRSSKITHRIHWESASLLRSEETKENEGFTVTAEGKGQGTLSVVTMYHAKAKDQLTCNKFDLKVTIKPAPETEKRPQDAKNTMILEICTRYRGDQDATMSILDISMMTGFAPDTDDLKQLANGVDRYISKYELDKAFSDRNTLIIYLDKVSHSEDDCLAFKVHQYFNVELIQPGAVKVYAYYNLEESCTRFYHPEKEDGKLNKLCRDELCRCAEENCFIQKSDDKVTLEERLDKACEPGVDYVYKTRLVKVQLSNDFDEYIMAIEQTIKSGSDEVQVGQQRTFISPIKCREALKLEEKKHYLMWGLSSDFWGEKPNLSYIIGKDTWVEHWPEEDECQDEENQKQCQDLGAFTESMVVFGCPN
T5 sequence (P01031 19-673, chain 1 of 2): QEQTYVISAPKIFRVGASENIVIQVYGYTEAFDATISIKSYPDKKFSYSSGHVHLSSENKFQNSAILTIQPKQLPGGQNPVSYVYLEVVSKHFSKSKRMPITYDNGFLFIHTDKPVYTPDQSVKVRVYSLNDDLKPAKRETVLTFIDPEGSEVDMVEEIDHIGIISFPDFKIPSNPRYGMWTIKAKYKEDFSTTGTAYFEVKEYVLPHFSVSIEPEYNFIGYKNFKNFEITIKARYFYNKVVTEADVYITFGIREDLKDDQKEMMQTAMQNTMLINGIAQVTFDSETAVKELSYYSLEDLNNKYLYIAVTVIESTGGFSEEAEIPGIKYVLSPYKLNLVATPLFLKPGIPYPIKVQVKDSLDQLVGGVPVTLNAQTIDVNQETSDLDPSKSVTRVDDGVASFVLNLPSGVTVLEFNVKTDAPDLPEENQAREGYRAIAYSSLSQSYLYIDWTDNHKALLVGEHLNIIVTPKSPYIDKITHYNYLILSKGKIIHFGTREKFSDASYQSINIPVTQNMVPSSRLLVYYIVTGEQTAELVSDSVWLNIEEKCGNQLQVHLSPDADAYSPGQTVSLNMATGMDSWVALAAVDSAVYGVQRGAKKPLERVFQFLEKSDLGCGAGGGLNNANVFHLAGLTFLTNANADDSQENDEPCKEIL
T5 sequence (P01031 678-1676, chain 2 of 2): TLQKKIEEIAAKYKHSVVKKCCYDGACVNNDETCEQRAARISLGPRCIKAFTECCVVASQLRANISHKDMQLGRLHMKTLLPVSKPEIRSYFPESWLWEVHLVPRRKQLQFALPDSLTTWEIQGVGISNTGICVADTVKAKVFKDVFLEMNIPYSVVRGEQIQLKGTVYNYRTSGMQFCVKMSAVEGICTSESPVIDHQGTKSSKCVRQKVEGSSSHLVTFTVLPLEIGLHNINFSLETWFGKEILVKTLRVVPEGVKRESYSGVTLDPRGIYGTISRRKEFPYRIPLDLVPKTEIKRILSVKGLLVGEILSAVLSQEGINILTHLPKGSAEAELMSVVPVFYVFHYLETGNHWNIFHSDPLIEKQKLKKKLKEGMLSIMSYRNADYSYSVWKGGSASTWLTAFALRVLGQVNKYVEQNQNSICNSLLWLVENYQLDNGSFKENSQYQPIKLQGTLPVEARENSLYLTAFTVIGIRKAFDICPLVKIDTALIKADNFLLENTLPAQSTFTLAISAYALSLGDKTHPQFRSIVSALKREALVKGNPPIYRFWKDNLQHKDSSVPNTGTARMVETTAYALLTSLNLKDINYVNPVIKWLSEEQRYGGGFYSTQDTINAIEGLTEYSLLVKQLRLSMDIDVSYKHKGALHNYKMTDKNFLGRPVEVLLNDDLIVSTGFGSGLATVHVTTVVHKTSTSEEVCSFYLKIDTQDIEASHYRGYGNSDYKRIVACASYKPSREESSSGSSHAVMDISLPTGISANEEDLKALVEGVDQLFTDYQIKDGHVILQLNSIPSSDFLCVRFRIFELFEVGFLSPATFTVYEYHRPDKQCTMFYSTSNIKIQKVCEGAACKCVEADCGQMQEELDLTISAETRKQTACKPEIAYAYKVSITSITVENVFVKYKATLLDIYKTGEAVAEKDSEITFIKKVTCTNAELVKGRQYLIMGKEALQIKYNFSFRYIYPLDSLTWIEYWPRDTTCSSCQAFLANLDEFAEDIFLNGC

Binder	Kd (complement C8 [1]) [nM]	Kd (complement factor H) [nM]	Kd (complement factor H (FH)) [nM]	Kd (complement C3) [nM]	Kd (complement C5) [nM]	Kd (complement C8 [2]) [nM]
B1	310	203				
B2			203	127	47	311
